US20230263900A1, “DENDRIMER-DRUG CONJUGATE” (priority 2020, published 2023)

Assay: Pharmacokinetic studies of RHa-5 and RHa-15, single IV or SC administration, compared with RDV
Format: in vivo, animals (mammals)
Conditions: for F AUC(0-inf), plasma GS-441524 / F AUC(0-inf), plasma Remdesivir / F AUC(0-last), plasma GS-441524 / F AUC(0-last), plasma Remdesivir: relative to RDV IV
Description: Studies were undertaken to investigate the pharmacokinetic (PK) profile of two Remdesivir dendrimer conjugates following single intravenous (IV) or subcutaneous (SC) administration, and to compare them with that of Remdesivir (RDV).
The study consisted of two phases (PK Phase 1 and PK Phase 2) in a total of 6 animals (age 36-48 months) each part separated by a washout period: • PK Phase 1: Four animals (mammals) were studied. One male and one female were administered RHa-5 (BHALys [Lys]2[Lys]2[Lys]8[Lys]16[Lys]32[(α-NH-6N-TDA-Remdesivir)32(ε-NH-COPEG2000)32] 20% Remdesivir loading w/w) (test item) intravenously; and one male and one female were administered RHa-5 subcutaneously. Blood samples were taken over a period of 7 days. A minimum washout period of 14 days took place between the last blood sampling point of the PK Phase 1 and the start of PK Phase 2. • PK Phase 2: Six animals (mammals) were studied. One male and one female were administered RHa-15 (BHALys[Lys]2[Lys]4[Lys]8[Lys]16[Lys]32[(α-NH-3′ O-TDA-Remdesivir)32(ε-NH-COPEG2000)32] 18.63% Remdesivir loading w/w) (test item) intravenously; one male and one female were administered RHa-15 subcutaneously; and one male and one female were administered RDV (reference item). Blood samples were taken over a period of 7 days.
Formulation procedure: Test items RHa-5 and RHa-15 were reconstituted in Required volume of Water for injection (WFI), until a complete solution was obtained. The required volume of WFI was slowly added to RDV formulation (a lyophilate of 3.2% w/w RDV, 96.8% and sodium sulfobutylether-β-cyclodextrin adjusted to pH 3.5 with HCl) and shaken vigorously for 30 seconds. The solution was left for 20 minutes to ensure complete dissolution.
Administration: The clinical Remdesivir loading dose in humans is 200 mg. […] Allometric conversion of the dose from humans to small mammals results in an equivalent test dose of 6.17 mg/kg Remdesivir. Test item was administered as follows:
PK Phase 1: Two animal groups (A and B) of one male and one female each were administered test item RHa-5 at a Remdesivir equivalent dose of 6.17 mg/kg. Group A were administered the test item as a slow (30 seconds) intravenous bolus; and Group B were administered the test item over 30 seconds using the subcutaneous (SC) route into the back of the animal.
PK Phase 2: Three animal groups (C, D and E) of one male and one female each were included in this study phase. Groups C and D were administered test item RHa-15 at a Remdesivir equivalent dose of 6.17 mg/kg using the IV and SC routes, respectively. Group E were administered 6.17 mg/kg of RDV intravenously. IV administrations were done as a slow (30 seconds) bolus. SC administrations were done over 30 seconds.
Sampling schedule: Blood samples for PK analysis were collected as follows: • Day 1: pre-dose and at 15 min, 30 min, 1 h, 2 h, 4 h, 6 h, and 12 h after administration. • Days 2 to 8: 24, 48, 72, and 168 h after administration.
A blood volume of 2 mL was collected at each time point from the jugular vein with a 20-21G needle into a lithium heparin tube, and transferred into a tube containing 200 μL 0.15 M citric acid. Immediately following blood collection, the blood samples were mixed gently and kept on crushed ice until centrifugation at 1500 G for 10 min at 4° C. within 30 minutes of collection. Each plasma sample was stored frozen (˜80±10° C.).
The quantification range was 0.6 to 14400 ng/mL for Remdesivir and 0.6 to 14400 ng/mL for G441524.
Non-compartmental pharmacokinetic analysis was adopted to obtain the pharmacokinetic parameters from the blood concentration profiles.
The maximum concentration, Cmax, and time of maximum concentration, Tmax, were determined as the maximum measured concentration and its associated time. The area under the plasma concentration curve from 0 hours to the time of the last measurable concentration, AUC0-last, was calculated using linear trapezoidal estimation. […]

[1] = both sexes, in vivo, iv, 6.17 mg/kg
[2] = female, in vivo, iv, 6.17 mg/kg
[3] = IV, 6.17 mg/kg Remdesivir equivalent, female (4F)
[4] = IV, 6.17 mg/kg Remdesivir equivalent, female (4F; RDV 6F)
[5] = IV, 6.17 mg/kg Remdesivir equivalent, male (1M)
[6] = IV, 6.17 mg/kg Remdesivir equivalent, male (1M; RDV 3M)
[7] = IV, 6.17 mg/kg Remdesivir equivalent, mean of male and female
[8] = IV, 6.17 mg/kg Remdesivir equivalent, mean
[9] = SC, 6.17 mg/kg Remdesivir equivalent, female (5F)
[10] = SC, 6.17 mg/kg Remdesivir equivalent, male (2M)
[11] = SC, 6.17 mg/kg Remdesivir equivalent, mean

Compound: CCC(CC)COC(=O)[C@H](C)N[P@](=O)(OC[C@H]1O[C@@](C#N)(c2ccc3c(N)ncnn23)[C@H](O)[C@@H]1O)Oc1ccccc1 [RDV, 2-Ethylbutyl (2S)-2-{[(S)-{[(2R,3S,4R,5R)-5-(4-aminopyrrolo[2,1-f][1,2,4]triazin-7-yl)-5-cyano-3,4-dihydroxytetrahydrofuran-2-yl]methoxy}(phenoxy)phosphoryl]amino}propanoate]
- AUC(0-inf) [1]: 332 ng·h/mL
- AUC(0-t) [1]: 312 ng·h/mL
- Cmax [1]: 364 ng/mL
- Tmax [1]: 0.3 h
- Clast, plasma Remdesivir (both, in vivo, iv, 6.17 mg/kg): 2 ng/mL
- Time with plasma levels of Remdesivir greater than 10 ng/ml (both, in vivo, iv, 6.17 mg/kg): about 1 hour
- Time with plasma levels of Remdesivir greater than 100 ng/ml (both, in vivo, iv, 6.17 mg/kg): about 30 minutes
- t1/2last, plasma Remdesivir (both, in vivo, iv, 6.17 mg/kg): 7.3 h
- tlast, plasma Remdesivir (both, in vivo, iv, 6.17 mg/kg): 36 h
- AUC(0-inf) [2]: 293 ng·h/mL
- AUC(0-t) [2]: 265 ng·h/mL
- Cmax [2]: 267 ng/mL
- Tmax [2]: 0.25 h
- Vd [2]: 3920 L/kg
- concentration at 48 h [2]: 1.8 ng/mL
- t1/2last, plasma Remdesivir [2]: 10.7 h
- tlast, plasma Remdesivir [2]: 48 h
- Clearance from blood (in vivo, iv): rapidly cleared from blood
- AUC(0-inf) (male, in vivo, iv, 6.17 mg/kg): 370 ng·h/mL
- AUC(0-t) (male, in vivo, iv, 6.17 mg/kg): 360 ng·h/mL
- Cmax (male, in vivo, iv, 6.17 mg/kg): 462 ng/mL
- Tmax (male, in vivo, iv, 6.17 mg/kg): 0.25 h
- Vd (male, in vivo, iv, 6.17 mg/kg): 1130 L/kg
- concentration at 24 h (male, in vivo, iv, 6.17 mg/kg): 1.8 ng/mL
- t1/2last, plasma Remdesivir (male, in vivo, iv, 6.17 mg/kg): 3.9 h
- tlast, plasma Remdesivir (male, in vivo, iv, 6.17 mg/kg): 24 h

Compound: BHALys[Lys]2[Lys]4[Lys]8[Lys]16[Lys]32[(α-NH-3′O-TDA-Remdesivir)32(ε-NH-COPEG2000)32] [RHa-15]
- C0, plasma GS-441524 [3]: 1 ng/mL
- C0, plasma Remdesivir [3]: 691 ng/mL
- F AUC(0-inf), plasma GS-441524 [3]: 0.8 x-fold
- F AUC(0-inf), plasma Remdesivir [3]: 14.8 x-fold
- F AUC(0-last), plasma GS-441524 [3]: 0.7 x-fold
- F AUC(0-last), plasma Remdesivir [3]: 16.3 x-fold
- Clast, plasma GS-441524 [4]: 10.5 ng/mL
- Clast, plasma Remdesivir [4]: 1.8 ng/mL
- t1/2last, plasma GS-441524 [4]: 19.0 h
- t1/2last, plasma Remdesivir [4]: 10.1 h
- tlast, plasma GS-441524 [4]: 72 h
- tlast, plasma Remdesivir [4]: 72 h
- C0, plasma GS-441524 [5]: 1 ng/mL
- C0, plasma Remdesivir [5]: 664 ng/mL
- F AUC(0-inf), plasma GS-441524 [5]: 0.8 x-fold
- F AUC(0-inf), plasma Remdesivir [5]: 12.1 x-fold
- F AUC(0-last), plasma GS-441524 [5]: 0.7 x-fold
- F AUC(0-last), plasma Remdesivir [5]: 12.4 x-fold
- Clast, plasma GS-441524 [6]: 10.9 ng/mL
- Clast, plasma Remdesivir [6]: 1.8 ng/mL
- t1/2last, plasma GS-441524 [6]: 21.5 h
- t1/2last, plasma Remdesivir [6]: 10.0 h
- tlast, plasma GS-441524 [6]: 72 h
- tlast, plasma Remdesivir [6]: 72 h
- C0, plasma GS-441524 [7]: 1 ng/mL
- C0, plasma Remdesivir [7]: 677 ng/mL
- Clast, plasma GS-441524 [7]: 11 ng/mL
- Clast, plasma Remdesivir [7]: 2 ng/mL
- t1/2last, plasma GS-441524 [7]: 20.3 h
- t1/2last, plasma Remdesivir [7]: 10.0 h
- tlast, plasma GS-441524 [7]: 72 h
- tlast, plasma Remdesivir [7]: 2 h
- F AUC(0-inf), plasma GS-441524 [8]: 0.8 x-fold
- F AUC(0-inf), plasma Remdesivir [8]: 13.5 x-fold
- F AUC(0-last), plasma GS-441524 [8]: 1 x-fold
- F AUC(0-last), plasma Remdesivir [8]: 14 x-fold
- Clast, plasma GS-441524 [9]: 1 ng/mL
- Clast, plasma Remdesivir [9]: 2 ng/mL
- t1/2last, plasma GS-441524 [9]: 24.5 h
- t1/2last, plasma Remdesivir [9]: 31.5 h
- tlast, plasma GS-441524 [9]: 168 h
- tlast, plasma Remdesivir [9]: 168 h
- F AUC(0-inf), plasma GS-441524 [9]: 0.8 x-fold
- F AUC(0-inf), plasma Remdesivir [9]: 14.8 x-fold
- F AUC(0-last), plasma GS-441524 [9]: 0.8 x-fold
- F AUC(0-last), plasma Remdesivir [9]: 16.3 x-fold
- Clast, plasma GS-441524 [10]: 1 ng/mL
- Clast, plasma Remdesivir [10]: 2 ng/mL
- t1/2last, plasma GS-441524 [10]: 26.2 h
- t1/2last, plasma Remdesivir [10]: 41.3 h
- tlast, plasma GS-441524 [10]: 168 h
- tlast, plasma Remdesivir [10]: 168 h
- F AUC(0-inf), plasma GS-441524 [10]: 0.9 x-fold
- F AUC(0-inf), plasma Remdesivir [10]: 12.1 x-fold
- F AUC(0-last), plasma GS-441524 [10]: 0.9 x-fold
- F AUC(0-last), plasma Remdesivir [10]: 12.4 x-fold
- Clast, plasma GS-441524 [11]: 1 ng/mL
- Clast, plasma Remdesivir [11]: 2 ng/mL
- t1/2last, plasma GS-441524 [11]: 25.3 h
- t1/2last, plasma Remdesivir [11]: 36.4 h
- tlast, plasma GS-441524 [11]: 168 h
- tlast, plasma Remdesivir [11]: 168 h
- F AUC(0-inf), plasma GS-441524 [11]: 0.8 x-fold
- F AUC(0-inf), plasma Remdesivir [11]: 13.5 x-fold
- F AUC(0-last), plasma GS-441524 [11]: 1 x-fold
- F AUC(0-last), plasma Remdesivir [11]: 14 x-fold
- Plasma Remdesivir t1/2 and AUC compared to RDV delivered IV (delivered IV or SC): substantially extended plasma Remdesivir t1/2 and increased AUC
